{"source": "IntAct's records for PubMed 16115628", "parents": {"B1": {"name": "1-phosphatidylinositol 4,5-bisphosphate phosphodiesterase delta-1 (Homo sapiens), P51178 (parent)", "chain": "MDSGRDFLTLHGLQDDEDLQALLKGSQLLKVKSSSWRRERFYKLQEDCKTIWQESRKVMRTPESQLFSIEDIQEVRMGHRTEGLEKFARDVPEDRCFSIVFKDQRNTLDLIAPSPADAQHWVLGLHKIIHHSGSMDQRQKLQHWIHSCLRKADKNKDNKMSFKELQNFLKELNIQVDDSYARKIFRECDHSQTDSLEDEEIEAFYKMLTQRVEIDRTFAEAAGSGETLSVDQLVTFLQHQQREEAAGPALALSLIERYEPSETAKAQRQMTKDGFLMYLLSADGSAFSLAHRRVYQDMGQPLSHYLVSSSHNTYLLEDQLAGPSSTEAYIRALCKGCRCLELDCWDGPNQEPIIYHGYTFTSKILFCDVLRAIRDYAFKASPYPVILSLENHCTLEQQRVMARHLHAILGPMLLNRPLDGVTNSLPSPEQLKGKILLKGKKLGGLLPPGGEGGPEATVVSDEDEAAEMEDEAVRSRVQHKPKEDKLRLAQELSDMVIYCKSVHFGGFSSPGTPGQAFYEMASFSENRALRLLQESGNGFVRHNVGHLSRIYPAGWRTDSSNYSPVEMWNGGCQIVALNFQTPGPEMDVYQGRFQDNGACGYVLKPAFLRDPNGTFNPRALAQGPWWARKRLNIRVISGQQLPKVNKNKNSIVDPKVTVEIHGVSRDVASRQTAVITNNGFNPWWDTEFAFEVVVPDLALIRFLVEDYDASSKNDFIGQSTIPLNSLKQGYRHVHLMSKNGDQHPSATLFVKISLQD"}}, "data": [{"variants_of": "B1", "settings": "with imb1_human KPNB1, Q14974", "values": [{"variant": "E341A", "effect of a mutation on the interaction": "decreasing interaction"}]}]}
